In patent publication US20150056162A1 (published 2015):
Numbering of substitutions follows the chain as printed.

Key:
IL-13Rα2, biotinylated [1] = molecular target: T1, IL-13Rα2, biotinylated (human, UniProt Q14627 27-343, biotinylated (site not stated)); assay: SPR; kinetic
T1 chain: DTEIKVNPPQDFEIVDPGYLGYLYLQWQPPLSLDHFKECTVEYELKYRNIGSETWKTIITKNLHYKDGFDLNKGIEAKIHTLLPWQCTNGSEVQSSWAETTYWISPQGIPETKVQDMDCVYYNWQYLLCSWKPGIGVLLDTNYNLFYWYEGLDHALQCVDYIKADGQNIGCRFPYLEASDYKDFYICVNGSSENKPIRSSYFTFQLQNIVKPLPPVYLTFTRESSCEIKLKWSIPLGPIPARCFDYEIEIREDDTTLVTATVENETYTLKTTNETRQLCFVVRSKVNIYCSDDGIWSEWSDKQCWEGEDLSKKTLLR

IL-13Rα2, biotinylated [2] = molecular target: T1, IL-13Rα2, biotinylated; assay: SPR; equilibrium
IL-13Rα2, biotinylated [3] = molecular target: T1, IL-13Rα2, biotinylated; assay: SPR; kinetic
A8 = assay: SPR; kinetic
A6 = assay: SPR; kinetic
A7 = assay: SPR; kinetic
B6 [4] = assay: SPR; kinetic
C10 [5] = assay: SPR; equilibrium
C7 [6] = assay: SPR; equilibrium
C3 [7] = assay: SPR; equilibrium
C2 [8] = assay: SPR; equilibrium
C12 [9] = assay: SPR; equilibrium
C9 [10] = assay: SPR; equilibrium
C10 [11] = assay: SPR; kinetic
C7 [12] = assay: SPR; kinetic
C3 [13] = assay: SPR; kinetic
C2 [14] = assay: SPR; kinetic
C12 [15] = assay: SPR; kinetic
C9 [16] = assay: SPR; kinetic
B6 [17] = assay: SPR; equilibrium

B1: IL-13 variant C11 (ligand)
chain: PGPVPPSTAHRELIEELVNITQNQKAPLCNGSMVWSINLTAGMYCAALESLINVSGCSAIEKTQRMLSGFCPHKVSAGQFSSLHVTGRKIEVAQFVKDLLLHLKKLFKEGQFNHHHHHH
B1 gave a Kd (IL-13Rα2, biotinylated [1]) of 0.0001 nM.

B2: IL-13 variant D7 (ligand)
chain: B1 chain with H10A, V18F, Q64K, S81P, T86K, G87K, R88T, K89R, L101I, K104R
B2 was tested, and the Kd (IL-13Rα2, biotinylated [1]) was 0.003 nM.

B3: IL-13 variant C4 (ligand)
chain: B1 chain with H10V, T86R, G87D, R88T, K89R, L101N, K105E, K108T
Work on B3 yielded a Kd (IL-13Rα2, biotinylated [1]) of 0.393 nM.

B4: IL-13 variant B4 (ligand)
chain: PGPVPPSTALSELIEELINITQNQKAPLCNGSMVWSINPTAGMYCAALESLINVSGCSAIEKTQRMLSGFCPHKVAAGQFSSLHDKGSMIEVAQFVKDLLYHLRTLFREGQFNHHHHHH
Work on B4 yielded a Kd (IL-13Rα2, biotinylated [2]) of 108 nM.

B5: IL-13 variant A5 (ligand)
chain: B4 chain with S11I, P39L, M43I, A76S, D85V, M89K, Y101H, T105A, F107M
Binder B5 has a Kd (IL-13Rα2, biotinylated [2]) of 50 nM.

B6: IL-13 variant A11 (ligand)
chain: B4 chain with L10V, S11R, P39R, A76S, D85V, K86R, G87S, M89K, Y101F
With B6 the Kd (IL-13Rα2, biotinylated [1]) was 0.391 nM.

B7: IL-13 variant B2 (ligand)
chain: B1 chain with H10L, V18I, Q24E, M43I, R88S, L101Y, K104R, K105A, K108R
For B7, the Kd (IL-13Rα2, biotinylated [1]) was 1.5 nM.

B8: IL-13 variant DN (ligand)
chain: PGPVPPSTAVRALIEELINITQNQKAPLCNGSMVWSINRTAGMYCAALESLINVSGCSAIEKTQDMLSGFCPHKVSAGQFSSLHVRSSKIEVAQFVKDLLFHLRTLFREGQFNHHHHHH
Work on B8 yielded a Kd (IL-13Rα2, biotinylated [3]) of 0.391 nM.

B9: IL-13Rα1 (receptor)
chain: GGGGAAPTETQPPVTNLSVSVENLCTVIWTWNPPEGASSNCSLWYFSHFGDKQDKKIAPETRRSIEVPLNERICLQVGSQCSTNESEKPSILVEKCISPPEGDPESAVTELQCIWHNLSYMKCSWLPGRNTSPDTNYTLYYWHRSLEKIHQCENIFREGQYFGCSFDLTKVKDSSFEQHSVQIMVKDNAGKIKPSFNIVPLTSRVKPDPPHIKNLSFHNDDLYVQWENPQNFISRCLFYEVEVNNSQTETHNVFYVQEAKCENPEFERNVENTSCFMVPGVLPDTLNTVRIRVKTNKLCYEDDKLWSNWSLNDIFEAQKIEWHEHHHHHH
modifications: biotin on the C-terminal biotin acceptor peptide (coexpressed with BirA ligase)
With B9 the Kd (A8) was 2.06 nM, the Kd (A6) was 1.9 nM and the Kd (A7) was 1.18 nM. The Kd (B6 [4]) was 5.9 nM, the Kd (C10 [5]) was 264 nM and the Kd (C7 [6]) was 35000 nM. For the same binder, the Kd (C3 [7]) was 16000 nM, the Kd (C2 [8]) was 4000 nM and the Kd (C12 [9]) was 15000 nM. The Kd (C9 [10]) was 31000 nM.

B10: IL-13Rα2 (receptor)
chain: T1 chain
modifications: biotinylated (site not stated)
B10 showed a Kd (C10 [11]) of 5 nM, a Kd (A8) of 0.263 nM and a Kd (C7 [12]) of 0.272 nM. It also gave a Kd (A6) of 0.267 nM, a Kd (C3 [13]) of 0.379 nM and a Kd (C2 [14]) of 0.025 nM. The Kd (C12 [15]) was 0.053 nM, the Kd (C9 [16]) was 0.259 nM and the Kd (A7) was 0.218 nM. For the same binder, the Kd (B6 [17]) was 53 nM.
